Data: paper PMC7577971, “Antibody-mediated disruption of the SARS-CoV-2 spike glycoprotein” (Nature Communications, 2020)

Target: T1, stabilised, trimeric ectodomain of the SARS-CoV-2 spike glycoprotein (FUR 2P) (SARS-CoV-2, Wuhan-Hu-1 (YP_009724390.1), R682S | R685S | K986P | V987P)
T1 construct: also called S trimer; trimeric spike
Experiment: BLI
Settings: both partners purified

B1: CR3022 Fab (tag cleaved with TEV, as used in binding assays) (Fab, V domains shown)
VH: QMQLVQSGTEVKKPGESLKISCKGSGYGFITYWIGWVRQMPGKGLEWMGIIYPGDSETRYSPSFQGQVTISADKSINTAYLQWSSLKASDTAIYYCAGGSGISTPMDVWGQGTTVTVAS
VL: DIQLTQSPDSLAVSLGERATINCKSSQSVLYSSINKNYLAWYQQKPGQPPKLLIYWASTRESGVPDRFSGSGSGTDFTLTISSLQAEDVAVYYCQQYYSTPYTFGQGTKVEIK
With B1 the Kd was 80 nM.
